B1: Glyma.01G060300 native probe (dsDNA)
DNA 1: TGAAAAATCGTGTCAGTGTCGCCACGTG
DNA 2: CACGTGGCGACACTGACACGATTTTTCA
B2: Glyma.01G060300 native probe, 6-FAM (dsDNA)
DNA 1: TGAAAAATCGTGTCAGTGTCGCCACGTG
DNA 2: CACGTGGCGACACTGACACGATTTTTCA

Key:
GST-GmABAS1 [1] = target: T1, GST-GmABAS1 (Glycine max/soja (soybean; the cloned …, UniProt A0A3Q9B5G2 1-289); experiment: EMSA; 150 mM KCl, 10 mM Tris pH 7.4, 0.1 mM EDTA, 0.1 mM DTT, EDTA-free protease inhibitor; room temperature 20 min; 6% (non-competitive) or 10% (competitive) acrylamide gel in TBE; conditions: protein: recombinant; tags: N-terminal GST (pGEX-4T-1); label: none (SYBR Green stain); blunt
T1 sequence: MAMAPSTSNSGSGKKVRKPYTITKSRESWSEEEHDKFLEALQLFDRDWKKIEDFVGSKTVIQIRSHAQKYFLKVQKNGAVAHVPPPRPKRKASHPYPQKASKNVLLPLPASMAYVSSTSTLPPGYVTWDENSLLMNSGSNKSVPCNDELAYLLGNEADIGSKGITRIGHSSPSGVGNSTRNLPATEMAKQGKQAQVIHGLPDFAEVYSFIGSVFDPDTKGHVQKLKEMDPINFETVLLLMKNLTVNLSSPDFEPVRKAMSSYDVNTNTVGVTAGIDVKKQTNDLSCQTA

GST-GmABAS1 [2] = target: T1, GST-GmABAS1; experiment: EMSA; 72 pmol protein, 10 pmol probe; 150 mM KCl, 10 mM Tris pH 7.4, 0.1 mM EDTA, 0.1 mM DTT, EDTA-free protease inhibitor; room temperature 20 min; 6% (non-competitive) or 10% (competitive) acrylamide gel in TBE; conditions: protein: recombinant; tags: N-terminal GST (pGEX-4T-1); blunt

| Binder | binding result (GST-GmABAS1 [1]) | binding result (GST-GmABAS1 [2]) |
| --- | --- | --- |
| B1 | binds | – |
| B2 | – | binds |

Source: article PMC7260724, “ABAS1 from soybean is a 1R-subtype MYB transcriptional repressor that enhances ABA sensitivity”
